Test results from paper PMC2119555.
Where “and” joins values, the source holds several entries; their conditions need not be identical. Equal values may be shown once.

Key:
[1] = biological target: murine FGFR-1 (flg) expressed on CHO cells (murine) (UniProt P16092); assay: radioligand binding
[2] = biological target: murine FGFR-2 (bek) expressed on CHO cells (murine) (UniProt P21803); assay: radioligand binding

B1: recombinant K140 (NH2-terminally truncated K-FGF, residues 67-206) (ligand)
chain: MAAVQSGAGDYLLGIKRLRRLYCNVGIGFHLQALPDGRIGGAHADTRDSLLELSPVERGVVSIFGVASRFFVAMSSKGKLYGSPFFTDECTFKEILLPNNYNAYESYKYPGMFIALSKNGKTKKGNRVSPTMKVTHFLPRL
modifications: 125I-labeled Bolton-Hunter reagent (where used as the labelled ligand)
B1 showed a Kd [1] of 0.09 nM, a Kd [2] of 0.06 nM and a fold affinity over K-FGF (competition) [2] of 2 fold. The fold affinity over bFGF and K-FGF (competition against 125I-bFGF) [2] was 2 fold and 3 fold.

B2: recombinant wild-type K-FGF (human K-FGF/HST, FGF-4) (ligand)
chain: APTAPNGTLEAELERRWESLVALSLARLPVAAQPKEAAVQSGAGDYLLGIKRLRRLYCNVGIGFHLQALPDGRIGGAHADTRDSLLELSPVERGVVSIFGVASRFFVAMSSKGKLYGSPFFTDECTFKEILLPNNYNAYESYKYPGMFIALSKNGKTKKGNRVSPTMKVTHFLPRL
modifications: 125I-labeled Bolton-Hunter reagent (where used as the labelled ligand)
With B2 the Kd [1] was 0.28 nM, the fold more unlabeled competitor required than of K140 [1] was 5 fold and the Kd [2] was 0.14 nM.
